The values below come from patent publication US20240270866A1 (Alector, published 2024).

Test [1] has as its target T1, mouse SIRPA overexpressed on CHO cells (mouse, UniProt P97797 32-513).
T1 construct: also called CHO-muSIRPA
T1 sequence: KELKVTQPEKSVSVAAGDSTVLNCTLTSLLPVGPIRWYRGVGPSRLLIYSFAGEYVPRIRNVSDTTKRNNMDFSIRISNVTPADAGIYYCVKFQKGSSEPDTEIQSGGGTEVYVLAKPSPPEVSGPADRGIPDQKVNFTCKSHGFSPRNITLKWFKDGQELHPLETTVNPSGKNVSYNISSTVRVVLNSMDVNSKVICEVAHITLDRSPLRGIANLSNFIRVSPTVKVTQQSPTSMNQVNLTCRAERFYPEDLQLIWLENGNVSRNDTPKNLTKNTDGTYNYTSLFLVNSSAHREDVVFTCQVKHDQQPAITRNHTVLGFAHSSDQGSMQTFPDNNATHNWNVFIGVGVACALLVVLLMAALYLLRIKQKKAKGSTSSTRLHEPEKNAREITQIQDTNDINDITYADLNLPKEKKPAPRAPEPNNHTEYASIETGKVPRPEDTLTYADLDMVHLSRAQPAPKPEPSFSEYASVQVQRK
In words: flow, CHO-muSIRPA.

The target of test [2] is T2, Mouse SIRPA D1 Fc (mouse, UniProt P97797 32-150, limits assumed).
T2 sequence: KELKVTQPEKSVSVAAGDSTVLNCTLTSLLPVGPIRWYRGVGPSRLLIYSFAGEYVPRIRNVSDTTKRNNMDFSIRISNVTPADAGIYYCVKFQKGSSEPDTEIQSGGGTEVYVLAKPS
In words: ForteBio IgG avid.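 Further: antibody IgG captured on AHQ biosensors, then 100 nM Fc-fused SIRP antigen applied for 3 min, followed by 3 min buffer dissociation, kinetics fitted to a 1:1 model.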
Protocol: (§1) Briefly, ForteBio affinity measurements were performed by loading IgGs on-line onto AHQ sensors. Sensors were equilibrated off-line in assay buffer for 30 min and then monitored on-line for 60 seconds for baseline establishment. For avid binding measurement, sensors with loaded IgGs were exposed to 100 nM antigen (human SIRPA or SIRPβ1 Fc fusion) for 3 min, afterwards they were transferred to assay buffer for 3 min for off-rate measurement. Additional avid binding was determined by loading biotinylated SIRPA monomer on SA sensors and exposure to 100 nM IgG in solution. Monovalent binding measurements were obtained by loading human SIRPA or SIRPβ1 Fc fusion antigens to AHQ sensor and followed by exposure to 100 nM anti-SIRPA antibody Fab. Additional monovalent measurements were made by loading biotinylated human SIRPA or SIRPβ1 monomer to SA sensor followed by exposure to 100 nM Fab in solution. Kinetics data were fit using a 1:1 binding model in the data analysis software provided by ForteBio.

Test [3] has as its target Human SIRPb D1 Fc (human, UniProt O00241 30-148, limits assumed). Briefly: ForteBio IgG avid.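 Further: antibody IgG captured on AHQ biosensors, then 100 nM Fc-fused SIRP antigen applied for 3 min, followed by 3 min buffer dissociation, kinetics fitted to a 1:1 model.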 A general note: Biolayer interferometry detects binding as a change in optical thickness at a sensor tip.
Protocol: as §1
In test [4] the target is T3, human SIRPA overexpressed on CHO cells (human, UniProt P78324 31-504).
T3 construct: also called CHO-huSIRPA
Briefly: flow, CHO-huSIRPA.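 Further: Anti-SIRPA antibodies applied at 1 µg/mL for 1 h on ice, binding read by flow cytometry using a PE-labelled secondary antibody.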
Protocol: (§2) Initial characterization of anti-SIRPA antibodies of the present disclosure involved determining their ability to bind cell lines overexpressing human or mouse SIRPA. Cells were harvested, plated at 10⁶/ml in a 96 well plate, washed, and incubated in 100 ul PBS containing 1 ug/ml Mab for 1 hour in ice. Cells were then washed twice and incubated in 100 ul PBS containing 5 ug/ml PE-conjugated secondary antibody for 30 minutes in ice. Cells were washed twice in cold PBS and acquired on a BD FACS Canto. Data analysis and calculation of mean fluorescence intensity (MFI) values or % positive cells was performed with FlowJo® (TreeStar) software version 10.0.7.

Test [5] concerns the target T1, mouse SIRPA overexpressed on CHO cells. Briefly: flow, CHO-muSIRPA. This is another data set of the same source.
Protocol: as §2

Human SIRPb D1 Fc, sequence (O00241 30-148 limits assumed): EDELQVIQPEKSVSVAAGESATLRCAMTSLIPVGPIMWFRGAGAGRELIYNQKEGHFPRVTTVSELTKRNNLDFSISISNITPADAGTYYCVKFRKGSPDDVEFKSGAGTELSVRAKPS

B1: SA-20 (antibody, V domains shown)
VH: QVQLVESGGGVVQPGRSLRLSCAASGFTFSSYGMHWVRQAPGKGLEWVAVISYDGSNKYYADSVKGRFTISRDNSKNTLYLQMNSLRAEDTAVYYCAKEPRSYWHGYGMDVWGQGTTVTVSS
VL: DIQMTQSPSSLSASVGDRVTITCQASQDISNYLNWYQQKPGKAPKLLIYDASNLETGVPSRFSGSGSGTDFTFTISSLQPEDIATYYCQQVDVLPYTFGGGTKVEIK
notes: IgG
B1: the binding result in test [1] was “no binding (tested: 1 ug/ml)”; in test [2] it was “no binding (tested: 100 nM)”; in test [3] it was “no binding (tested: 100 nM)”. Moreover, the “relative MFI” value is 5.19 fold over background in test [4] and 0.786 fold over background in test [5].

B2: SA-40 (antibody, V domains shown)
VH: QVQLVQSGAEVKKPGASVKVSCKASGYTFTSYYMHWVRQAPGQGLEWMGIINPSGGSTTYAQKFQGRVTMTRDTSTSTVYMELSSLRSEDTAVYYCAREGLASTGVSDYYYMDVWGKGTTVTVSS
VL: EIVLTQSPGTLSLSPGERATLSCRASQSVSSSYLAWYQQKPGQAPRLLIYGASSRATGIPDRFSGSGSGTDFTLTISRLEPEDFAVYYCQQLAHSPFTFGGGTKVEIK
notes: IgG
Consider B2, for which the binding result in test [1] is “no binding (tested: 1 ug/ml)”; in test [2], “no binding (tested: 100 nM)”; in test [3], “no binding (tested: 100 nM)”. In addition, the entries for the “relative MFI” value in test [4] and in test [5] were 0.542 fold over background and 0.446 fold over background, respectively.

B3: SA-52 (antibody, V domains shown)
VH: QVQLVQSGAEVKKPGASVKVSCKASGYTFTNYGISWVRQAPGQGLEWMGWISAYNGNTNYAQKLQGRVTMTTDTSTSTAYMELRSLRSDDTAVYYCARGLWSEHIYWGQGTLVTVSS
VL: EIVMTQSPGTLSLSPGERATLSCRASQSVSSSYLAWYQQKPGQAPRLLIYGASNRATGIPDRFSGSGSGTDFTLTISRLEPEDFAVYYCQQYVDLPLTFGGGTKVEIK
notes: IgG
As to B3, the values for the binding result in test [1], in test [2] and in test [3] were “no binding (tested: 1 ug/ml)”, “no binding (tested: 100 nM)” and “no binding (tested: 100 nM)”, respectively. Moreover, the “relative MFI” value is 1.9 fold over background in test [4] and 0.557 fold over background in test [5].

B4: SA-53 (antibody, V domains shown)
VH: QVQLQESGPGLVKPSQTLSLTCTVSGGSISSGGYYWSWIRQHPGKGLEWIGYIYYSGSTYYNPSLKSRVTISVDTSKNQFSLKLSSVTAADTAVYYCARGPLGAAGFDYWGQGTLVTVSS
VL: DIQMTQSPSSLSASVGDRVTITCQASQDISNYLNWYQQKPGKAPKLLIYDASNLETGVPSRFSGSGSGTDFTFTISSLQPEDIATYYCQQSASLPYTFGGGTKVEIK
notes: IgG
For the molecule B4, the binding result in test [1] is “no binding (tested: 1 ug/ml)”; in test [2], “no binding (tested: 100 nM)”; in test [3], “no binding (tested: 100 nM)”. In addition, the “relative MFI” value was 2.13 fold over background in test [4] and 0.726 fold over background in test [5].

B5: SA-50 (antibody, V domains shown)
VH: EVQLVESGGGLVQPGGSLRLSCAASGFTFSSYSMNWVRQAPGKGLEWVSYISSSSSTIYYADSVKGRFTISRDNAKNSLYLQMNSLRAEDTAVYYCARGGGGYSYSPYIYGMDVWGQGTTVTVSS
VL: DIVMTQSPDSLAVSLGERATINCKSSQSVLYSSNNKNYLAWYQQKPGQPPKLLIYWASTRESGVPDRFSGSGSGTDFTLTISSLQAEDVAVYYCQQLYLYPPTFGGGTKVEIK
notes: IgG
In the case of B5, the binding result is listed as “no binding (tested: 1 ug/ml)” in test [1], “no binding (tested: 100 nM)” in test [2] and “no binding (tested: 100 nM)” in test [3]. The entries for the “relative MFI” value in test [4] and in test [5] were 5.56 fold over background and 0.518 fold over background, respectively.

B6: SA-45 (antibody, V domains shown)
VH: QVQLVQSGAEVKKPGASVKVSCKASGYTFTSYGISWVRQAPGQGLEWMGWISAYNGNTNYAQKLQGRVTMTTDTSTSTAYMELRSLRSDDTAVYYCARESGGTGAYGMDVWGQGTTVTVSS
VL: DIQMTQSPSSLSASVGDRVTITCRASQSVSSSYLAWYQQKPGQAPRLLIYGASSRATGIPDRFSGSGSGTDFTLTISRLEPEDFAVYYCQQYYDSITFGGGTKVEIK
notes: IgG
B6: the results for the binding result in test [1], in test [2] and in test [3] were “no binding (tested: 1 ug/ml)”, “no binding (tested: 100 nM)” and “no binding (tested: 100 nM)”, respectively. For the same molecule, the figures for the “relative MFI” value in test [4] and in test [5] were 14.1 fold over background and 0.512 fold over background, respectively.

B7: SA-30 (antibody, V domains shown)
VH: QVQLVESGGGVVQPGRSLRLSCAASGFTFSSYGMHWVRQAPGKGLEWVAVIWYDGSNKYYADSVKGRFTISRDNSKNTLYLQMNSLRAEDTAVYYCARDTGSATTMWLYGMDVWGKGTTVTVSS
VL: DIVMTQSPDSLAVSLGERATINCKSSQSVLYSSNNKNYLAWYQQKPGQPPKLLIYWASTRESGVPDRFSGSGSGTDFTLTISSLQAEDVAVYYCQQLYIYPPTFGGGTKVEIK
notes: IgG
Consider B7, for which the binding result in test [1] is “no binding (tested: 1 ug/ml)”; in test [2], “no binding (tested: 100 nM)”; in test [3], “no binding (tested: 100 nM)”. Besides, the “relative MFI” value in test [4] came to 41.2 fold over background; in test [5] it was 0.595 fold over background.

B8: SA-44 (antibody, V domains shown)
VH: EVQLVESGGGLVQPGGSLRLSCAASGFTFSSYSMNWVRQAPGKGLEWVSYISSSSSTIYYADSVKGRFTISRDNAKNSLYLQMNSLRAEDTAVYYCAREPFYSADRFDYWGQGTLVTVSS
VL: DIQMTQSPSSVSASVGDRVTITCRASQGIDSWLAWYQQKPGKAPKLLIYAASSLQSGVPSRFSGSGSGTDFTLTISSLQPEDFATYYCQQGVSLPYTFGGGTKVEIK
notes: IgG
On to B8, for which the binding result in test [1] is “no binding (tested: 1 ug/ml)”; in test [2], “no binding (tested: 100 nM)”; in test [3] it was “no binding (tested: 100 nM)”. Besides, the “relative MFI” value in test [4] was 1.2 fold over background; in test [5], 0.56 fold over background.

B9: SA-41 (antibody, V domains shown)
VH: QVQLQESGPGLVKPSETLSLTCTVSGGSISSYYWSWIRQPPGKGLEWIGSIYYSGSTNYNPSLKSRVTISVDTSKNQFSLKLSSVTAADTAVYYCAREGVAARGYYYGMDVWGQGTTVTVSS
VL: EIVMTQSPATLSVSPGERATLSCRASQSVSSSLAWYQQKPGQAPRLLIYGASTRATGIPARFSGSGSGTEFTLTISSLQSEDFAVYYCQQYITYPITFGGGTKVEIK
notes: IgG
Take B9: the binding result in test [1] is recorded as “no binding (tested: 1 ug/ml)”; in test [2] it was “no binding (tested: 100 nM)”; in test [3], “no binding (tested: 100 nM)”. Besides, the results for the “relative MFI” value in test [4] and in test [5] were 0.989 fold over background and 0.47 fold over background, respectively.

B10: SA-42 (antibody, V domains shown)
VH: QVQLQESGPGLVKPSETLSLTCTVSGGSISSYYWSWIRQPPGKGLEWIGSIYYSGSTNYNPSLKSRVTISVDTSKNQFSLKLSSVTAADTAVYYCAREGVAARGYYYGMDVWGQGTTVTVSS
VL: EIVMTQSPATLSVSPGERATLSCRASQSVSSNLAWYQQKPGQAPRLLIFGASTRATGIPARFSGSGSGTEFTLTISSLQSEDFAVYYCQQYNAYPITFGGGTKVEIK
notes: IgG
As for B10, the binding result in test [1] is “no binding (tested: 1 ug/ml)”; in test [2], “no binding (tested: 100 nM)”; in test [3], “no binding (tested: 100 nM)”. The entries for the “relative MFI” value in test [4] and in test [5] were 1.29 fold over background and 0.443 fold over background, respectively.

B11: SA-48 (antibody, V domains shown)
VH: QVQLVESGGGVVQPGRSLRLSCAASGFTFSSYGMHWVRQAPGKGLEWVAVISYDGSNKYYADSVKGRFTISRDNSKNTLYLQMNSLRAEDTAVYYCARGAPIETLGVYYYGMDVWGQGTTVTVSS
VL: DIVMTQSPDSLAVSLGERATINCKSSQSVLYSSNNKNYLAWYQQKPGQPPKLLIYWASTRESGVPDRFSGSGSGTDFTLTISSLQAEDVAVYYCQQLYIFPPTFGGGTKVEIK
notes: IgG
As for B11, the binding result in test [1] is recorded as “no binding (tested: 1 ug/ml)”; in test [2] it was “no binding (tested: 100 nM)”; in test [3], “no binding (tested: 100 nM)”. Moreover, the “relative MFI” value is 3.27 fold over background in test [4] and 0.545 fold over background in test [5].

B12: SA-57 (antibody, V domains shown)
VH: QLQLQESGPGLVKPSETLSLTCTVSGGSISSSSYAWGWIRQPPGKGLEWIGSIYYSGSTYYNPSLKSRVTISVDTSKNQFSLKLSSVTAADTAVYYCARKGMDDAGMDVWGQGTTVTVSS
VL: EIVLTQSPATLSLSPGERATLSCRASQSVSSYLAWYQQKPGQAPRLLIYDASNRATGIPARFSGSGSGTDFTLTISSLEPEDFAVYYCQQDSAWPFTFGGGTKVEIK
notes: IgG
In the case of B12, the binding result is given as “no binding (tested: 1 ug/ml)” in test [1], “no binding (tested: 100 nM)” in test [2] and “no binding (tested: 100 nM)” in test [3]. The “relative MFI” value is 1.89 fold over background in test [4] and 0.464 fold over background in test [5].

B13: SA-6 (antibody, V domains shown)
VH: EVQLVESGGGLVQPGRSLRLSCAASGFTFDDYAMHWVRQAPGKGLEWVSGITWNSGSIGYADSVKGRFTISRDNAKNSLYLQMNSLRAEDTALYYCAKEGRYGSGITTTWGQGTLVTVSS
VL: EIVMTQSPATLSLSPGERATLSCRASQSVSSYLAWYQQKPGQAPRLLIYDSSNRATGIPARFSGSGSGTDFTLTISSLEPEDFAVYYCQQDANYPYTFGGGTKVEIK
notes: IgG
B13: the binding result in test [1] is on record as “no binding (tested: 1 ug/ml)”; in test [2], “no binding (tested: 100 nM)”; in test [3], “no binding (tested: 100 nM)”. For the same molecule, the figures for the “relative MFI” value in test [4] and in test [5] were 3.13 fold over background and 0.545 fold over background, respectively.
